Data from patent US20200354728.

Tests used:
[1] = test system: HpdR (LysR-type transcriptional regulator, 304 aa) (Pseudomonas denitrificans); experiment: cell_activity; details: hpdH mRNA by 3-HP in wild type; 1.20 in hpdR deletion; 60.5 on complementation
[2] = test system: MmsR (LysR-type transcriptional regulator) (Pseudomonas denitrificans); experiment: EMSA; details: per monomeric MmsR
[3] = test system: MmsR (LysR-type transcriptional regulator) (Pseudomonas denitrificans); experiment: cell_activity; details: GFP reporter; 25 mM 3-HP; 2.6 to 90.2 x10^3 AU/OD

Sequence | Kd ([2]; no 3-HP) [nM] | Kd ([2]; with 3-HP (25 mM)) [nM] | also measured
TGTGGGAGCGGGCGTGCCCGCGAAGAGGCCAGCACAGACTTACCACTGTGCTAAAACGCACAGCGGCTGCGCGAAATCTCGTGTTTCCTCCACGAAATTACTCACTAAGATGGATCGGGACAAGAATAATAATCAGGCCCGAGGTTGCAC (double strand) [PhpdH (PC3) promoter] |  |  | activity (fold induction) [1]: 43
GTCAGCCTCAGCGCACCTCGAATGTGCAAAAACGCAGACCATACTTGCACATCACCGCATTGAGTACATCAATCCTTGCTTGTTAGGATCGCGCCCAGGCACAAAAAAGCCACAGGCTGGGAGAATCCCG (double strand) [F12M (O2 mutated)] | 18.6 | 19.8 | 
GTCAGCCTCAGCGCACCTCGAATGTGCAAAAACGCAGACCACTTGCACATCACCGCATTGAGTACATCAAAAATCACTGTTAGGATCGATCCAGACAACAAAAAAGCCACAGGCTGGGAGAATCCCG (double strand) [F12 (PmmsA, intact O1 and O2)] |  |  | Kd ([2]; no 3-HP, 0.4 nM DNA): 10.7 nM; Kd ([2]; with 3-HP (25 mM), 0.4 nM DNA): 5.4 nM
GTCAGCCTCAGCGCACCTCGATCCTTGCTAAACGCAGACCATACCGCCCAGGCACCGCATTGAGTACATCAAAAATGCACTGTTAGGATCGATCCAGACAACAAAAAAGCCACAGGCTGGGAGAATCCCG (double strand) [F1M2 (O1 mutated)] | 79.8 | 316 | 
CCTCGAATGTGCAAAAACGCAGACCATACTTGCACATCACCGCATTGAGTACATCAAAAATGCACTGTTAGGATCGATCCAGACAACAAAAAAGCCACAGGCTGGGAGAATCCCG (double strand) [BS_wt (PmmsA reporter)] |  |  | activity (fold induction) [3]: 34.6
